A protein production outcome set (Wang et al. 2014)

Assay: label from the status in PepcDB records
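Also: failed if final PepcDB status was selected cloned or expressed and not failed if soluble or beyond.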

Sequence | protein production
MENEKIWIKELKEKRLAYGVSQNKLAVASHITRPYLSDIETGKAVPTQQVKEDLLNALERFNPDNPLEMLFDYVRIRFPTNDVAQIIGEVLRLNMDYMLHEDFGYYSYPEHYRFGDIVVLVSHDVSKGVLLELKGKGCRQFENFLLAQHRSWYDFFQDCMEHKGIFKRLDLAINDKTGILNIPDLAKKCKQEECISVFRSFKNYRSGELVHRDEKPYMGNTLYIGSLKSEVYFCIYEKDYEQYVKNDVPLEDAEVKNRFEIRLKNDRATQAMKDLLAHQQAEKTAFEIINRYIRFADKDDTKRRSDWKTNERWEWFIGKNRGALRLTTQPEPYSFERTLNWLHHQVAPTLKIASILDVLNGTTIISTMIQEAKLTEKHEKLIEQQHLAMEDLIT | not failed
MAKKDNFEEYAQLEEYASAEDISRVRAELLTCPELNTSLAGTIIEIDKNYAKSILITTSEMVADDQGLIFDAFIFAAANYVAQASINKEFSVIIGSKCFFYAPLKLGDVLELEAHALFDETSKKRDVKVVGHVKEVKMFEGTIQVVSTDEHIFKLKRPPLNTVKPTENQEQGAKINNPEAVAAALMASVGGK | failed
VAASWREQFIRAEQTHWDAVTETASETYWEGGVLSDVTALAPDPATLFISNSMPIRDMDRFGGPRDADLTVLGNRGASGIDGITSTALGAGSATSDPLVLVTGDLAYYHDMNGLLALGRCAVDATVVLLNNDGGGIFHMLPIEDHPTFEDQFRTPHGLDFEPTEALYSLQFERVADRRQFRERFAESVQTDGTQVIEVRFDAGDSHAVRDQLTE | failed
MPPELNWQEIDTVLLDMDGTLLDLEFDSHFWLKQVPETLSQRRGISLEQAHKIIHDEYLAVQHTLNWYCFDYWSERLDLDIYAMTTQAGNRVRLRQDTQPFLASLRERGLQTILLTNAHPHSLAVKIEHTALDQHLDLLLSTHTFGYPKEDQRLWQAVTQHTGLNPARTLFVDDSEKILDAARTFGIRYCLGIENPDSSCADKAFHSHPAINDYRKLLPALELRK | failed
MEKRLDYITDLMALGPTANARTIQRRQTAHRLAIAEAWQVKPGEKILEIGCGQGDLSAVLADQVGSSGHVTGIDIASPDYGAPLTLGQAWNHLLAGPLGDRLTVHFNTNLSDDLGPIADQHFDRVVLAHSLWYFASANALALLFKNMAAVCDHVDVAEWSMQPTALDQIGHLQAAMIQGLLYAIAPSDVANIRTLITPDTLAQIAHDNTWTYTAGTIVEDPTLDDAHWEIATTNALLTELKLSTDLRDRVKPLLEAMSHNGTASLATFTGRITF | not failed
MGKRRFQKAKETSSVAEASSPTESQATRRRRGRPRKNLENPEDFKKEESEEDEDYEEYEDEEEEDEEAEVVINREKLKKKVRSSSGSMEKEQKMKHEELEEEEKPEMTVKVVVPPPSSRRSRRKSTPVKSW | failed
MDTAEIEADQRALQHASVEGTTETPGNAQSSTNDDVIKATVDQIVAQILSESAERKATEEGKTGKAADDVKNTPESGEDANKAAAKEPSGTPVAASSEATVPAPGSASSSNSPLPGTPPKYSNPHNLTIGARLEALSVEGNWLPARIVEVNETEQTLLVRFERNHKLKVSPSTSGSFQEWMAIKSERLRQRLSNRVLPVFELDEKCMARWSGPRKFPGTIRKLLGNDTYEVLFDDGYVKNVRAVHMNKMPKQLPPVQVAEEGASKSPTPVGTPVSSAPVAPKRASTGSLGGSSGSSGSKKSKCAPQRRDWPLLDMASLDIASLGLPEIPHDGEWTCHWVNDQPIGTEGFLIVGEHQKPTVIVQDWRLPPGWIKHMYQRSNVLGKWDVILVSPSGKRFRSKSDLKLFLESQNLVYNPDVYDFSIHRRRAKDINAYVYTHGYNPQPPPKPRPMDVSMNSTLDQSITSQHSLPSTPMPVKESQYMEAPVASLMPPAELMSPQTQPADETKPKIEAEILEASEGGTSQLMLADPHVVENGFAFIGGLKVKIQDNLYVCPREDCAKTYRKEDFLLIHIRHYHKEFAEHVSHCPKMQELAVKRTHPSSIDQVEAVPKNQIPNQQFFAKMHQQDLQQSRSFKRQSVSATATSSTPSDITPTKALLSPKMEPPSVSPTVESGIKQEDVSLDAGPTQSFNPSLSRSCKRARLSPSKRPSGSRKSNRQRSQRRPILSDNPAGHGLTEQDVEETRQSFNTPTPDTRIDSKKRRSGAATTPISSIDSPAMGDSVSTPSSNDQTDINAALAPPPAETLSKAPQYIKENGELIRIVRMRQEEIINCICEYGEEDGLMIQCELCLCWQHGACNGIVKEADVPDKYVCYICRNPQRGRDSMRFKHDQDWLFEGKLPVAAYHTANPQATKQFELLKRSHTLTGNLLDAKRSMHSLLVKINIARNRCHPKLYLWAKKWDEDNLDSTALTPVKRAKLEAPDLPNVPQPEAAIDPEECQYRLIEHIKVQQSLVLDRLNDIEAEMDELEKEDTLDDLKDADISTTKEALATFIKELETMKRLAKLNQVANMKQTLRDSATSK | failed
MNYKKHRGETLFKRWFLNNRFSIVLLNILLFFLIIWVFNKISFVLNPAWVFFSAILPPLLLALIQYYIMNPVVDWFEKKFRVPRVLTIIVLFLFVVIAMIWIINILVPIAQHQINSLVKNWPHIWNDAVNATQNALRDPRLHSVKGSIQGMIDDTQKTLFKSGQNTVNSTLGNISSAVSIITMIVMTLLTAPFILFFMLKDGHQLRPYITKFVPETWQQSFSKLLYDINYAVASYIRGQITVAFWVGVMFTIGYIIIGLPYGLALAILAGFMNLIPYFGTPLALIPVIVISIMTSGSMLVKVLIVFAIEQTIETRILSPLVMGNKMQMHPVTTILLLIGASSVWGLWGVIFGIPIYAVLKIIVSRVYNYYRRESDIFSNEDAASLTTGDADESKK | failed
MKSTLIVIGNIILVILILFIYTMLWYYIGAKGKGIIFGVNLRKKEGLKAVAYWGIFWFLAFSFILSVASRSTISINNKITGILTYLGAISLALFCYLIIIFPITDLIRFILNKLGFSGSLREYMSIIYGRGISIFIAVIIIILFGFWHAIHQTTTNYNISINKKAGKLKQLNVVMVSDVHMGIMIRERGIDKLVTSINKLKPDVVFFCGDMVDESTPTSLEKYYSSAFKEIISKYGVYAITGNHEYATQNSEVAMNYMKKADIKVLEDKAVKVDNSFYVIGRNDAAGGKVKPLNEIMKNADKRLPIIALNHRPVALEEAEKNGVDLQLSGHTHEGQIFPFNFTTKLVFEDDYGYLKKKDFNLIVTSGYGTWGPPIRIGTKGEIVNIKIDFMN | failed
MSNDKTPNSPESTPSTPADEVLDGLLAELSPEASAEPNPADDSGNPFTTIFKSVTDKATELGSAATEGLSNLQESATELAAETKEKFGNFAEAHKDDLGQLLTSAQGKAASFGEAVSDRFGELGESATESFGNLQEGAAGFAAGAKEKFGDFAEASQEKLSEIAETTQDKAASFGEAVSDRVEGLRGSAAEKLGNLQEGASELAAGAKEKFGDFAEASQEKLSEIVETTQGKAASFGEAVSDRVEGLRGSAAEKLGNLQEGASELAAGAKEKFGDFAEASQEKLSEIVETTQGKAASFGEAVSDRFGELGESAAEKLSNLQEDASEFAASAQEKLSTFTNARQEELGNLTKSAQSDVQDTANTVSEQLEQAPEAVSTAADSLKGAQEKLEAAVVASQSVAEKLKPAEVQSQSSLQLASESPSPSFFGRLLRKIKGFFRKLFG | failed
MGKDFKSLVTRCIYVGKMNDNAKKLKIATEELKDLGNNVMKRVKLCEEQQQMKRLDKVQTWLRQADTVIKEAEEYFLMSSSSSSSGLISSSHKMEKKICKKLKEVQEIKSRGMFEVVAESTGGIGGGAGGGLTIKDSDEQTIGLEAVSGLVWRCLTMENTGIIGLYGVEGVGKTTVLTQVNNRLLQQKANGFDFVLWVFVSKNLNLQKIQDTIREKIGFLDRTWTSKSEEEKAAKIFEILSKRRFALFLDDVWEKVDLVKAGVPPPDAQNRSKIVFTTCSEEVCKEMSAQTKIKVEKLAWERAWDLFKKNVGEDTIKSHPDIAKVAQEVAARCDGLPLALVTIGRAMASKKTPQEWRDALYILSNSPPNFSGQIS | failed
MNLFGQKDRGNHVSGVDRGKVIMYGLSTCVWCKKTKKLLTDLGVDFDYVYVDRLEGKEEEEAVEEVRRFNPSVSFPTTIINDEKAIVGFKEKEIRESLGF | not failed
MFMREIELRGHIIDSLILPKVFDKILDMGGDYKVLEFEIGKRKTDPSYAKILVIGRDERHVDEILNELRDLGAEIPEIEEVELQPAEKDMVLPEGFYSTTNHKTFIRFKGKWIEVENQKMDGAIVVYPDEMRAEVKTIRNIKKGDLVVVGHKGVRVIPPEKPREGGGLFEFMKSDASSEKPKETIIRRIAKEMYEIREKYRKTGKGGIVVVGGPAIIHTGAGWALAKLIRMGYVQALFAGNALATHDIESVLYGTSLGVDLKTGKSVPGGHSHHLRAINTIMRAGSIKDAVEQGILKEGVMYECIKNNIPYVLAGSIRDDGPLPDVITDVVKAQEKMRELLKGKDMVLMLSTMLHSIATGNLLPSWVKTICVDINPAVVTKLMDRGTSQALGIVTDVGVFLPMLVEELEKLEKEKEKSEKREELEHHHHHH | not failed
MNNRVEILYCTQCRWLLRATWMTQELLTTFDQEIGELTLKPGTGGLFEVWVNGKRIWSRKEQGGFPEISELKRLVRDEVAPGRDLGHADQKGKTGASPAPAEP | failed
AKGLRTVKTCVGSDWCRFGTQDSTGLGIRIERFMWGSWTPAKLKMAVSGCPRNCAEATCKDIGVICVDSGFEIHFAGAAGLDIKGTEVLGLVRTEDEALEYIVALTQMYREQARYLERIYKWAKRIGLEEIRRQIMGDAEK | failed
SLSEAGYPRKVMQHAEELHERILSFDSRITVPLDFGTTGNEVDKDGPGQLDLVKAGRGRLSGAALAIFGWPEMWNGPNAPHKPTPGFVDEARHQQEIRYKILTGMVRDFPNQVGIAYSPEDFRRLAMEGKFAIVMSMLNAYPLGDDLSQLDKWAARGVRMFGFSYVGNNDWADSSRPLPFFNDSPDALGGLSPLGKQAVERLNDLGVIIDVSQMSTKALEQVAALSRAPIVASHSAPRALVDIKRNLSDHEMQLIKDSGGVIQVVGFPAYLRPLSKPTLDKLDALRARFDLPPLEGLDYALMPGDPIITIWPEQRFGEYASALYGILEEEPKAGLKELVDAIDYTVKKVGIDHVGISSDFNDGGGVDGWKDVSEIRNVTAELITRGYSDADIAKLWGGNFLRAWGEVQKRAKPTATP | not failed
MSKSTAEIRQAFLDFFHSKGHQVVASSSLVPNNDPTLLFTNAGMNQFKDVFLGLDKRNYSRATTSQRCVRAGGKHNDLENVGYTARHHTFFEMLGNFSFGDYFKHDAIQFAWELLTGENWFALPKERLWVTVYETDDEAYEIWEKEVGIPRERIIRIGDNKGAPYASDNFWQMGDTGPCGPCTEIFYDHGDHIWGGPPGSPEEDGDRYIEIWNIVFMQFNRQADGTMEPLPKPSVDTGMGLERIAAVLQHVNSNYDIDLFRTLIEAVAKVTGATDLGNKSLRVIADHIRSCAFLVADGVLPSNENRGYVLRRIIRRAVRHGNMLGAKETFFYKLVGPLIEVMGSAGEELKRQQAQVEQVLKTEEEQFARTLERGLALLDEELAKLQGDTLDGETAFRLYDTYGFPVDLTADVCRERNIKVDEAGFEAAMEEQRRRAREASGFGADYNAMIRVDSASEFKGYDHLELNGKVTALFVDGKAVEAINAGQEAVVVLDQTPFYAESGGQVGDKGELKGAGFTFAVDDTQKYGQAIGHLGKLSAGALKVGDAVQADVDEARRARIRLNHSATHLMHAALRQVLGTHVAQKGSLVSDKVLRFDFSHNEAMKPSEIREVEDLVNAQIRRNLPIETNIMDLDAAKAKGAMALFGEKYDERVRVLSMGDFSTELCGGTHASRTGDIGLFRIISESGTAAGIRRIEAVTGEGAMATVHAQSDRLNDIAHLLKGDSQNLGDKVRAVLERTRQLEKELQQLKDQAAAQESANLSSKAVDLNGVKLLVSELAGIEPKMLRTMVDDLKNQLGSTVIVLATVVEGKVSLIAGVSKDVTDRVKAGELIGMVAQQVGGKGGGRPDMAQAGGTDAAALPAALASVQGWVSAKLQ | failed
